For this assay, the target named is GFP-tagged Ska complex (Ska complex^Ska3-GFP) (human) (UniProt Q96BD8). The assay can be described thus: SEC-MALS. (SEC sorts molecules by how far they enter the pores of the column.)

Usually stoichiometry N stands for a count of units in the complex or per binding partner.

Regarding “GFP-tagged Ska complex (Ska complex^Ska3-GFP) (from UniProt Q96BD8;Q8WVK7;Q8IX90)”, the stoichiometry N amounted to 2.

These data come from publication PMC5856539.
